Results from patent US20200109182A1, “GLP-1 ANALOG FUSION PROTEIN AND PREPARATION METHOD AND APPLICATION THEREOF” (JIANGSU T-MAB BIOPHARMA CO., LTD, priority 2013, published 2020).

Target: GLP-1 receptor (GLP-1R) on CHO DG44 2-A4-2-A8 cells
Test: cell-based or functional assay

“GLP-1 (7-37) (Val^8-GLP-1 (7-37)) (from UniProt P01275 27-57) (peptide)” gave an EC50 (CRE-luciferase reporter, test NO. 1) of 0.75 nM, an EC50 (CRE-luciferase reporter, test NO. 2) of 0.368 nM and an EC50 (CRE-luciferase reporter, test NO. 3) of 0.364 nM.
